In publication PMC3838125, “Crystal Structure of Venezuelan Hemorrhagic Fever Virus Fusion Glycoprotein Reveals a Class 1 Postfusion Architecture with Extensive Glycosylation” (Journal of Virology, 2013):

Biological target: the molecule itself
Assay: crystal structure

B1: Guanarito virus (GTOV) fusion glycoprotein GP2, residues 292 to 418 (domain or fragment)
chain: DSEFCDMLRLFDFNKNAIEKLNNQTKTAVNMLTHSINSLISDNLLMRNKLKEILKVPYCNYTRFWYINHTKSGEHSLPRCWLVSNGSYLNESDFRNEWILESDHLIAEMLSKEYQDRQGKTPLTLVD
notes: also called GTOV GP2
  stoichiometry N: 3
